Source: US12359237
Changes are numbered by the printed parent chain.

Experiments:
[1] = tested on: T1, 4SCSC7_4AAAA7 precursor peptide
T1 sequence: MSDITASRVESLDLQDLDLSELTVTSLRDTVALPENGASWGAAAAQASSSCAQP

[2] = tested on: T2, S10A mutant precursor peptide of LazA*
T2 sequence: T1 sequence with A42S, A43C, A44S, A45C, S48A

[3] = tested on: T3, C13A mutant precursor peptide of LazA*
T3 sequence: T1 sequence with A42S, A43C, A44S, A45C, C51A

[4] = tested on: T4, S12A mutant precursor peptide of LazA*
T4 sequence: T1 sequence with A42S, A43C, A44S, A45C, S50A

[5] = tested on: T5, S11A mutant precursor peptide of LazA*
T5 sequence: T1 sequence with A42S, A43C, A44S, A45C, S49A

LazC (macrocyclase of lactazole biosynthesis, His-Tag-bound recombinant protein)
leader peptide elimination (LC-MS chromatogram of the leader peptide cleaved off through LazC reaction) [1]: Leader peptide elimination was also seen in the 4SCSC7_4AAAA7 precursor peptide at a level equivalent to LazA* | leader peptide cleaved off through LazC reaction (LC-MS chromatogram) [2]: Ser (10) and Cys (13) are also relatively important | leader peptide cleaved off through LazC reaction (LC-MS chromatogram) [3]: A leader peptide cleaved off was slightly seen in S11A and C13A | leader peptide cleaved off through LazC reaction (LC-MS chromatogram) [4]: such a leader peptide was hardly seen in S11A and S12A | leader peptide cleaved off through LazC reaction (LC-MS chromatogram) [5]: such a leader peptide was hardly seen in S11A and S12A
